Data published in US20060024291A1 (DOHENY EYE INSTITUTE, published 2006).

Target: T1, protocadherin-42 (human, UniProt Q08174 58-1060)
T1 construct: Full length human cDNA expressed in mouse L cells (pRC/RSV-pc42); tested on the transfected cells or in their extracts; also called pc42; human pc42
T1 sequence: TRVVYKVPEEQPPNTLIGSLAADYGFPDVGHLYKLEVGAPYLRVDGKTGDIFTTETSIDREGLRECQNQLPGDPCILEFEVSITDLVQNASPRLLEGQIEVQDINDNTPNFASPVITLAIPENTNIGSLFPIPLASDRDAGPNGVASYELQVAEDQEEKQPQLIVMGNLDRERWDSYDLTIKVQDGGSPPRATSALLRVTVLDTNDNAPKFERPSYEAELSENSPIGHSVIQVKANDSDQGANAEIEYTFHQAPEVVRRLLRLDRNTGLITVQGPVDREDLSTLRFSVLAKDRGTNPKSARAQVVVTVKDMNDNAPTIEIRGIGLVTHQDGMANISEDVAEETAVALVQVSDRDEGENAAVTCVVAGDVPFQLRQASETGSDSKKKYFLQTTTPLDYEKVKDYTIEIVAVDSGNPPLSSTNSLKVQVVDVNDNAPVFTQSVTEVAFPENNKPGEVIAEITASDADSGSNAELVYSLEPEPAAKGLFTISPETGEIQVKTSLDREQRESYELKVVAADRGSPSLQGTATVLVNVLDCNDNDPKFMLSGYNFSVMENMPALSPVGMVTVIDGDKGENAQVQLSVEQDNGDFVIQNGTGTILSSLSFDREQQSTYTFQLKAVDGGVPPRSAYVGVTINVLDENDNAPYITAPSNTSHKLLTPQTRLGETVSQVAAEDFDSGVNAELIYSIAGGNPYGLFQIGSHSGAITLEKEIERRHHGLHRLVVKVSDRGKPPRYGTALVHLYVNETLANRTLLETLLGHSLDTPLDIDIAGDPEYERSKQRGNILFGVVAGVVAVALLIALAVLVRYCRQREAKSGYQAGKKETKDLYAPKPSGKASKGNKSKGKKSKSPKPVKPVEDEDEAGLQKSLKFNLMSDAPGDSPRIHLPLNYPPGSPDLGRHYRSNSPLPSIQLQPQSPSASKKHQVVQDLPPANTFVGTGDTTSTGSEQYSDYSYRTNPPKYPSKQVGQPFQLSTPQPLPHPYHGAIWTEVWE
Assay: mixed cell aggregation assay, DiO-labelled pc43 transfectants with unlabelled pc42 transfectants
Procedure: The cell aggregation properties of the transfected L cells expressing protocadherin proteins were examined. Transfected L cells were cultured in Dulbecco's Modified Eagles Medium (DMEM) (Gibco, Grand Island, N.Y.) supplemented with 10% fetal bovine serum at 37° C. in 5% CO₂. Cells grown near confluence were treated with 0.01% trypsin in the presence of 1 mM EGTA for 25 minutes on a rotary shaker at 37° C. and collected by centrifugation. The cells were washed three times with Ca²⁺ free HEPES-buffered saline (HBS) after adding soybean trypsin inhibitor, and were resuspended in HBS containing 1% BSA. The cell aggregation assay [Urushihara et al., Dev. Biol., 70: 206-216 (1979)] was performed by incubating the resuspended cells in a 1:1 mixture of DMEM and HBS containing 1% BSA, 2 mM CaCl₂ and 20 μg/ml of deoxyribonucelease on a rotary shaker at 37° C. for 30 minutes to 6 hours.
This is in contrast to the cell aggregation that occurs with classic cadherins in similar experiments (Nagafuchi et al., supra, and Hatta et al., supra). […] Similar results were obtained when single cell suspensions of transfected cells were prepared by trypsin treatment in the presence of Ca²⁺. No re-aggregation was observed under the same conditions when untransfected L cells or L cells transfected with pRC/RSV vector alone were tested.

binding result: no binding
B1: protocadherin-43 (receptor)
chain: VIHYEIPEEREKGFAVGNVVANLGLDLGSLSARRFPVVSGASRRFFEVNRETGEMFVNDRLDREELCGTLPSCTVTLELVVENPLELFSVEVVIQDINDNNPAFPTQEMKLEISEAVAPGTRFPLESAHDPDLGSNSLQTYELSRNEYFALRVQTREDSTKYAELVLERALDREREPSLQLVLTALDGGTPALSASLPIHIKVLDANDNAPVFNQSLYRARVPGGCTSGTRVVQVLATDLDEGPNGEIIYSFGSHNRAGVRQLFALDLVTGMLTIKGRLDFEDTKLHEIYIQAKDKGANPEGAHCKVLVEVVDVNDNAPEITVTSVYSPVPEDASGTVIALLSVTDLDAGENGLVTCEVPPGLPFSLTSSLKNYFTLKTSADLDRETVPEYNLSITARDAGTPSLSALTIVRVQVSDINDNPPQSSQSSYDVYIEENNLPGAPILNLSVWDPDAPQNARLSFFLLEQGAETGLVGRYFTINRDNGIVSSLVPLDYEDRREFELTAHISDGGTPVLATNISVNIFVTDRNDNAPQVLYPRPGGSSVEMLPRGTSAGHLVSRVVGWDADAGHNAWLSYSLFGSPNQSLFAIGLHTGQISTARPVQDTDSPRQTLTVLIKDNGEPSLSTTATLTVSVTEDSPEARAEFPSGSAPREQKKNLTFYLLLSLILVSVGFVVTVFGVIIFKVYKWKQSRDLYRAPVSSLYRTPGPSLHADAVRGGLMSPHLYHQVYLTTDSRRSDPLLKKPGAASPLASRQNTLRSCDPVFYRQVLGAESAPPGQQAPPNTDWRFSQAQRPGTSGSQNGDDTGTWPNNQFDTEMLQAMILASASEAADGSSTLGGGAGTMGLSARYGPQFTLQHVPDYRQNVYIPGSNAH
notes: Full length human cDNA expressed in mouse L cells (pRC/RSV-pc43); tested on the transfected cells or in their extracts; also endogenous pc43 in human tissue sections; also called pc43; human pc43
